PMC3999109, “Dimerization Interface of 3-Hydroxyacyl-CoA Dehydrogenase Tunes the Formation of Its Catalytic Intermediate” (PLoS ONE, 2014)
Where a chain is given by its changes, count along the chain named. Names may count otherwise.

T1: cHAD (Caenorhabditis elegans, UniProt P34439)
T1 construct: gene F54C8.1; C-terminal GST tag cleaved; pEXS-CG vector, E. coli BL21(DE3)
T1 sequence (P34439 1-298): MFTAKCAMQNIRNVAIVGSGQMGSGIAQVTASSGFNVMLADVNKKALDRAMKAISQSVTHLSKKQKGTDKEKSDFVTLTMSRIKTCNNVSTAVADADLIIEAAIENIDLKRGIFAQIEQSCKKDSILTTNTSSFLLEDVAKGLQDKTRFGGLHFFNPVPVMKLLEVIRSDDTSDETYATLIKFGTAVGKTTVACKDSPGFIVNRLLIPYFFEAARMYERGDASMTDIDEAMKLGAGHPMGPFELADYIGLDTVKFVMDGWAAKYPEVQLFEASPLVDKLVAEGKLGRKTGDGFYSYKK

T2: cHAD (Caenorhabditis elegans, UniProt P34439, Y209A)
T2 construct: gene F54C8.1; C-terminal GST tag cleaved; pEXS-CG vector, E. coli BL21(DE3)
T2 sequence (P34439 1-298 Y209A): T1 sequence (P34439 1-298) with Y209A

B1: 3-hydroxyacyl-CoA dehydrogenase from C. elegans, wild type (enzyme, Caenorhabditis elegans)
chain: T1 sequence (P34439 1-298)
notes: 3-hydroxyacyl-CoA dehydrogenase (cHAD), Caenorhabditis elegans, WormBase WBGene00010035, GenBank CAA80153.1; N-terminal domain 9-194, loop 195-201 and C-terminal domain 202-297 described in the structure; vector pEXS-CG (derived from pET-22b(+)); also called cHAD; wild type cHAD; not shown: GST, C-terminal, cleaved
B2: 3-hydroxyacyl-CoA dehydrogenase from C. elegans, R204A/Y209A mutant (enzyme, Caenorhabditis elegans)
chain: T1 sequence (P34439 1-298) with R204A, Y209A
notes: 3-hydroxyacyl-CoA dehydrogenase (cHAD), Caenorhabditis elegans, WormBase WBGene00010035, GenBank CAA80153.1; as m1 with R204A and Y209A; Made by overlapping PCR from the wild type plasmid, ligated into pEXS-CG (BamHI, EcoRI); also called cHAD R204A/Y209A; source: E. coli BL21 (DE3), purified (same procedure as the wild type); not shown: GST, C-terminal, cleaved
B3: 3-hydroxyacyl-CoA dehydrogenase from C. elegans, Y209A mutant (enzyme, Caenorhabditis elegans)
chain: T1 sequence (P34439 1-298) with Y209A
notes: 3-hydroxyacyl-CoA dehydrogenase (cHAD), Caenorhabditis elegans, WormBase WBGene00010035, GenBank CAA80153.1; as m1 with Y209A; Made by overlapping PCR from the wild type plasmid, ligated into pEXS-CG (BamHI, EcoRI); also called cHAD Y209A; source: E. coli BL21 (DE3), purified (same procedure as the wild type); not shown: GST, C-terminal, cleaved
B4: 3-hydroxyacyl-CoA dehydrogenase from C. elegans, R204A mutant (enzyme, Caenorhabditis elegans)
chain: T1 sequence (P34439 1-298) with R204A
notes: 3-hydroxyacyl-CoA dehydrogenase (cHAD), Caenorhabditis elegans, WormBase WBGene00010035, GenBank CAA80153.1; as m1 with R204A; Made by overlapping PCR from the wild type plasmid, ligated into pEXS-CG (BamHI, EcoRI); also called cHAD R204A; source: E. coli BL21 (DE3), purified (same procedure as the wild type); not shown: GST, C-terminal, cleaved

Legend:
[1] = target: T1, cHAD; test: difference absorption spectroscopy of the ternary charge-transfer complex, […] nm; assay type: binding; details: 2 mM NAD+ with 2 mM acetoacetyl-CoA, 0.2 M citrate/phosphate pH 7.0, ambient temperature, 2 mg/ml protein; abortive ternary complex
[2] = target: T2, cHAD; test: Trp-NADH FRET titration, ex […] nm, em […] nm, Hill fit; assay type: binding; details: 10 mM citrate/phosphate pH 7.0, 150 mM NaCl, ambient temperature, 0.58 µM protein, 0-340 µM NADH
[3] = target: the molecule itself; test: SEC-MALS; SEC-LS/UV/RI; WTC-030S5 column, 20 mM MES pH 6.0, 100 mM sodium chloride; 100 µg protein injected, 0.5 ml/min
[4] = substrate: CC(=O)CC(=O)SCCNC(=O)CCNC(=O)[C@H](O)C(C)(C)COP(=O)(O)OP(=O)(O)OC[C@H]1O[C@@H](n2cnc3c(N)ncnc32)[C@H](O)[C@@H]1OP(=O)(O)O; test: purified protein; assay type: biochemical, Caenorhabditis elegans; details: 100 µM NADH (saturating), 0.1 M citrate/phosphate pH 7.0, 0.1 mM dithiothreitol, 298 K, 23 nM protein, AACoA 30-70 µM, 25.0 °C
[5] = target: the molecule itself; test: cross-linking; EGS, protein:EGS 1:50, on ice 40 min; protein diluted to 2 mg/ml in 0.2 M Na2HPO4, 0.1 M citrate pH 7.0; SDS-PAGE

Row | Molecule | difference absorption spectroscopy of the ternary charge-transfer complex, 412 n [1] | Trp-NADH FRET titration, ex 270 nm, em 460 nm, Hill fit [2] | stoichiometry N [3] | Km [4] | Vmax [4] | kcat [4] | kcat/Km [4] | binding result [5]
1 | NC(=O)c1ccc[n+]([C@@H]2O[C@H](COP(=O)(O)OP(=O)(O)OC[C@H]3O[C@@H](n4cnc5c(N)ncnc54)[C@H](O)[C@@H]3O)[C@@H](O)[C@H]2O)c1 [NAD^+] | difference spectroscopy of cHAD·NAD^+·AACoA ternary complex |  |  |  |  |  |  | 
2 | NC(=O)C1=CN([C@@H]2O[C@H](COP(=O)(O)OP(=O)(O)OC[C@H]3O[C@@H](n4cnc5c(N)ncnc54)[C@H](O)[C@@H]3O)[C@@H](O)[C@H]2O)C=CC1 [NADH] |  | Wild type and Y209A mutant cHAD show exactly the same number of Hill coefficient |  |  |  |  |  | 
3 | B1 |  |  | 2 | 72.0 ± 13.4 µM | 78 µmol/min/mg | 45 s⁻¹ | 600000 M⁻¹ s⁻¹ | 
4 | B2 |  |  |  | 115.6 ± 24.5 µM | 18 µmol/min/mg | 10 s⁻¹ | 90000 M⁻¹ s⁻¹ | binds
5 | B3 |  |  |  | 50.4 ± 11.0 µM | 30 µmol/min/mg | 17 s⁻¹ | 300000 M⁻¹ s⁻¹ | binds
6 | B4 |  |  |  | 83.2 ± 9.7 µM | 48 µmol/min/mg | 28 s⁻¹ | 300000 M⁻¹ s⁻¹ | binds
